What was measured:
Details in all cases: 20 nM; 72 h
[1] = tested on: MCF10A; assay: 5+ nucleoli phenotype percent effect (relative to siNT 0% and siKIF11 100%); higher = more cells with five or more nucleoli
Protocol: (§1)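 After 72 h, cells were fixed and stained with Hoechst and anti-fibrillarin, and nucleoli per nucleus were counted with CellProfiler. Values are plate-adjusted percent effect for the one-nucleolus and 5+ nucleoli phenotypes, normalised to siNT (0%) and to the positive controls siNOL11 or siKIF11 (100%), as the mean of biological triplicates. Percent viability is the nuclei count relative to siNT.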

[2] = tested on: MCF10A; assay: one-nucleolus phenotype percent effect (relative to siNT 0% and siNOL11 100%); higher = more cells with one nucleolus (ribosome biogenesis inhibition)
Protocol: as §1

[3] = tested on: MCF10A; assay: percent viability (nuclei count relative to siNT); higher = more viable cells
Protocol: as §1

Sequence | 5+ nucleoli phenotype percent effect [1] [%] | one-nucleolus phenotype percent effect [2] [%] | percent viability [3] [%]
CCAGGCUCUGCAGUGGGAACU [hsa-miR-3155a] | 30.4 | -2.13 | 32.5
AGGAGGACAAGUUGUGGGAU [hsa-miR-7154-3p] | -9.57 | 39.7 | 7.01
UUUCCCUUUCCAUCCUGGCAG [hsa-miR-5006-3p] | 18.5 | 4.84 | 31.7
UAGGGUAGACACUGACAACGUU [hsa-miR-6755-5p] | -14.8 | 25 | 19.9
AUGGAAUGUAUAUACGGAAUA [hsa-miR-3673] | -48.6 | 63.4 | 35.7
AUACCUCAUCUAGAAUGCUGUA [hsa-miR-4777-3p] | -19.6 | 0.874 | 51.3
ACUGGACUUGGAGUCAGGA [hsa-miR-378e] | -3.63 | 11.5 | 26.4
AAUUGCACUUUAGCAAUGGUGA [hsa-miR-367-3p] | 18 | -12.8 | 111
AAAACUGUAAUUACUUUUGUAC [hsa-miR-548g-3p] | 49.3 | -25.2 | 165
UCUCUGGAGGGAAGCACUUUCUG [hsa-miR-518c-5p] | -17.1 | 33.3 | 45.4
UUGCCUGCCCUCUUCCUCCAG [hsa-miR-6894-3p] | -20.1 | 22.3 | 24.2
UGGUAGAGCUGAGGACA [hsa-miR-4451] | 9.42 | -7.47 | 16.3
CUCUAGAGGGAAGCGCUUUCUG [hsa-miR-519a-5p] | -2.96 | -15.1 | 56.5
AUCCCUUGCAGGGGCUGUUGGGU [hsa-miR-623] | 53.3 | -13.1 | 91.7
CCCUCUCUGGCUCCUCCCCAAA [hsa-miR-4723-3p] | 50.7 | -23.7 | 114
CCCAGGGCUUGGAGUGGGGCAAGGUU [hsa-miR-4685-5p] | 15 | 9.96 | 69.2
CAGCCGCCGCCUGUCUCCACAG [hsa-miR-6746-3p] | 7.39 | -1.13 | 36.2
GCUGAACUGGGCUGAGCUGGGC [hsa-miR-4539] | -5.15 | -1.34 | 87
AGGAGAUCCUGGGUU [hsa-miR-3676-5p] | -13.3 | 18.3 | 30.1
ACCCUUGAGCCUGAUCCCUAGC [hsa-miR-4780] | 4 | -13.2 | 99.8

Sequence | 5+ nucleoli phenotype percent effect [1] [%] | one-nucleolus phenotype percent effect [2] [%] | percent viability [3] [%]
CUUCCGGUCUGUGAGCCCCGUC [hsa-miR-4664-3p] | -1.01 | 14.5 | 36.8
GAAAGCGCUUCCCUUUGCUGGA [hsa-miR-518a-3p] | -15.5 | 17.4 | 59.1
AAAGCGCUUCCCUUCAGAGUG [hsa-miR-518e-3p] | -27.4 | 9.91 | 48.9
GCGACCCACUCUUGGUUUCCA [hsa-miR-551a] | 39.1 | -18 | 81.6
CUAAGAAGUUGACUGAAG [hsa-miR-3653] | -37.5 | 49.1 | 42
CACCGGGGAUGGCAGAGGGUCG [hsa-miR-4655-5p] | 15 | 24.6 | 16.1
GCUGCGCUUGGAUUUCGUCCCC [hsa-miR-191-3p] | 5.48 | 5.27 | 71
UGGCCCAACCUAUUCAGUUAGU [hsa-miR-3136-3p] | 34.8 | -25.2 | 140
UACCCAGUCUCCGGUGCAGCC [hsa-miR-3130-5p] | -32.6 | 44 | 27.4
CAGGCGUCUGUCUACGUGGCUU [hsa-miR-3186-5p] | -8.59 | 27.8 | 23.1
AGUUUGGGAUGGAGAGAGGAGA [hsa-miR-6740-5p] | 24.1 | -20.1 | 83.1
ACCUUGCCUUGCUGCCCGGGCC [hsa-miR-1915-5p] | -40.4 | 39.7 | 34.9
UCGUGUCUUGUGUUGCAGCCGG [hsa-miR-187-3p] | -1.49 | -7.21 | 87.7
CACUGUGUCCUUUCUGCGUAG [hsa-miR-892a] | -27.3 | 31.9 | 57.7
GAGUGUAGUUCUGAGCAGAGC [hsa-miR-4280] | -17.9 | 18.3 | 29.9
AGAGAUGCCGCCUUGCUCCUU [hsa-miR-4708-5p] | -25.3 | 21 | 45.7
GGCAGGAGGGCUGUGCCAGGUUG [hsa-miR-4722-5p] | 13.5 | -6.08 | 60.5
UGACAACUAUGGAUGAGCUCU [hsa-miR-549a] | 15.5 | -18.5 | 77.8
UGAGCUGCUGUACCAAAAU [hsa-miR-558] | 0.086 | 6.73 | 65.1
AGUUCUUCAGUGGCAAGCUUUA [hsa-miR-22-5p] | 24 | 3.93 | 75.4

Sequence | 5+ nucleoli phenotype percent effect [1] [%] | one-nucleolus phenotype percent effect [2] [%] | percent viability [3] [%]
AGGUGUGUCUGUAGAGUCC [hsa-miR-3650] | -24.7 | 45.8 | 19.8
CCUAGACACCUCCAGUUC [hsa-miR-4305] | -1.06 | -1.35 | 39.4
AGGCAGUGUAUUGUUAGCUGGC [hsa-miR-449b-5p] | 36.8 | -25.7 | 128
AUAUACAGGGGGAGACUCUCAU [hsa-miR-1185-2-3p] | -11.3 | 21.3 | 25.8
ACCGUGGCUUUCGAUUGUUACU [hsa-miR-132-5p] | -7.44 | -1.09 | 68.8
CACUCAGCCUUGAGGGCACUUUC [hsa-miR-512-5p] | -15.2 | 16.2 | 43.4
UUGGGCUGGGCUGGGUUGGG [hsa-miR-1587] | -22.5 | 29.2 | 19.9
UGAGUUGGCCAUCUGAGUGAG [hsa-miR-571] | 5.09 | -7.45 | 84.6
CGACCUCGGCGACCCCUCACU [hsa-miR-6790-3p] | -13.8 | 8.29 | 45.6
UGUCACCCGCUCCUUGCCCAG [hsa-miR-6879-3p] | -23.3 | 3.65 | 47.6
CGCACCUGCCUCUCACCCACAG [hsa-miR-6804-3p] | 33.2 | -33.9 | 74.2
AUGUAUGUGUGCAUGUGCAUG [hsa-miR-297] | 34.4 | -26.3 | 116
UGUCUUACUCCCUCAGGCACAU [hsa-miR-550a-3p] | -24 | 15.4 | 60.2
CUGGGCUCGGGACGCGCGGCU [hsa-miR-4674] | -33.5 | 18.5 | 31.3
UAAGGUGCAUCUAGUGCAGAUAG [hsa-miR-18a-5p] | -34.5 | 37.7 | 49.1
UGAGAGUGGAAUUCACAGUAUUU [hsa-miR-4693-3p] | -31.4 | 35.2 | 23
AUGCCUCCCCCGGCCCCGCAG [hsa-miR-6836-3p] | -0.9 | -8.85 | 41.9
CUGCAGGCAGAAGUGGGGCUGACA [hsa-miR-6511b-5p] | -9.29 | 39.6 | 27.4
UCACGCGGAGAGAUGGCUUUG [hsa-miR-3186-3p] | -13.4 | 11.3 | 20.7
